Where two headings read alike, the source gives them in different places.
B1: ^125I-labeled lactoferrin: lactoferrin radioiodinated with IODO-GEN reagent, 34,800 cpm/pmole (protein, UniProt P02788 20-710, looked up)
Lactotransferrin: GRRRSVQWCAVSQPEATKCFQWQRNMRKVRGPPVSCIKRDSPIQCIQAIAENRADAVTLDGGFIYEAGLAPYKLRPVAAEVYGTERQPRTHYYAVAVVKKGGSFQLNELQGLKSCHTGLRRTAGWNVPIGTLRPFLNWTGPPEPIEAAVARFFSASCVPGADKGQFPNLCRLCAGTGENKCAFSSQEPYFSYSGAFKCLRDGAGDVAFIRESTVFEDLSDEAERDEYELLCPDNTRKPVDKFKDCHLARVPSHAVVARSVNGKEDAIWNLLRQAQEKFGKDKSPKFQLFGSPSGQKDLLFKDSAIGFSRVPPRIDSGLYLGSGYFTAIQNLRKSEEEVAARRARVVWCAVGEQELRKCNQWSGLSEGSVTCSSASTTEDCIALVLKGEADAMSLDGGYVYTAGKCGLVPVLAENYKSQQSSDPDPNCVDRPVEGYLAVAVVRRSDTSLTWNSVKGKKSCHTAVDRTAGWNIPMGLLFNQTGSCKFDEYFSQSCAPGSDPRSNLCALCIGDEQGENKCVPNSNERYYGYTGAFRCLAENAGDVAFVKDVTVLQNTDGNNNEAWAKDLKLADFALLCLDGKRKPVTEARSCHLAMAPNHAVVSRMDKVERLKQVLLHQQAKFGRNGSDCPDKFCLFQSETKNLLFNDNTECLARLHGKTTYEKYLGPQYVAGITNLKKCSTSPLLEACEFLRK
modifications: 125I label
notes: lactoferrin radioiodinated with IODO-GEN reagent, 34,800 cpm/pmole
B2: immobilized deglycosylated lactoferrin: lactoferrin incubated with peptide N-glycosidase F for 72 hours at 37° C (protein, UniProt P02788 20-710, looked up)
Lactotransferrin: GRRRSVQWCAVSQPEATKCFQWQRNMRKVRGPPVSCIKRDSPIQCIQAIAENRADAVTLDGGFIYEAGLAPYKLRPVAAEVYGTERQPRTHYYAVAVVKKGGSFQLNELQGLKSCHTGLRRTAGWNVPIGTLRPFLNWTGPPEPIEAAVARFFSASCVPGADKGQFPNLCRLCAGTGENKCAFSSQEPYFSYSGAFKCLRDGAGDVAFIRESTVFEDLSDEAERDEYELLCPDNTRKPVDKFKDCHLARVPSHAVVARSVNGKEDAIWNLLRQAQEKFGKDKSPKFQLFGSPSGQKDLLFKDSAIGFSRVPPRIDSGLYLGSGYFTAIQNLRKSEEEVAARRARVVWCAVGEQELRKCNQWSGLSEGSVTCSSASTTEDCIALVLKGEADAMSLDGGYVYTAGKCGLVPVLAENYKSQQSSDPDPNCVDRPVEGYLAVAVVRRSDTSLTWNSVKGKKSCHTAVDRTAGWNIPMGLLFNQTGSCKFDEYFSQSCAPGSDPRSNLCALCIGDEQGENKCVPNSNERYYGYTGAFRCLAENAGDVAFVKDVTVLQNTDGNNNEAWAKDLKLADFALLCLDGKRKPVTEARSCHLAMAPNHAVVSRMDKVERLKQVLLHQQAKFGRNGSDCPDKFCLFQSETKNLLFNDNTECLARLHGKTTYEKYLGPQYVAGITNLKKCSTSPLLEACEFLRK
modifications: deglycosylated with PNGase F
notes: lactoferrin incubated with peptide N-glycosidase F for 72 hours at 37° C
B3: mock-deglycosylated lactoferrin: lactoferrin given the same treatment as deglycosylated lactoferrin but in the absence of PNGase F (protein, UniProt P02788 20-710, looked up)
Lactotransferrin: GRRRSVQWCAVSQPEATKCFQWQRNMRKVRGPPVSCIKRDSPIQCIQAIAENRADAVTLDGGFIYEAGLAPYKLRPVAAEVYGTERQPRTHYYAVAVVKKGGSFQLNELQGLKSCHTGLRRTAGWNVPIGTLRPFLNWTGPPEPIEAAVARFFSASCVPGADKGQFPNLCRLCAGTGENKCAFSSQEPYFSYSGAFKCLRDGAGDVAFIRESTVFEDLSDEAERDEYELLCPDNTRKPVDKFKDCHLARVPSHAVVARSVNGKEDAIWNLLRQAQEKFGKDKSPKFQLFGSPSGQKDLLFKDSAIGFSRVPPRIDSGLYLGSGYFTAIQNLRKSEEEVAARRARVVWCAVGEQELRKCNQWSGLSEGSVTCSSASTTEDCIALVLKGEADAMSLDGGYVYTAGKCGLVPVLAENYKSQQSSDPDPNCVDRPVEGYLAVAVVRRSDTSLTWNSVKGKKSCHTAVDRTAGWNIPMGLLFNQTGSCKFDEYFSQSCAPGSDPRSNLCALCIGDEQGENKCVPNSNERYYGYTGAFRCLAENAGDVAFVKDVTVLQNTDGNNNEAWAKDLKLADFALLCLDGKRKPVTEARSCHLAMAPNHAVVSRMDKVERLKQVLLHQQAKFGRNGSDCPDKFCLFQSETKNLLFNDNTECLARLHGKTTYEKYLGPQYVAGITNLKKCSTSPLLEACEFLRK
modifications: mock-deglycosylated
B4: soluble lactoferrin: human milk lactoferrin added in solution to HSA-coated wells (protein, UniProt P02788 20-710, looked up)
Lactotransferrin: GRRRSVQWCAVSQPEATKCFQWQRNMRKVRGPPVSCIKRDSPIQCIQAIAENRADAVTLDGGFIYEAGLAPYKLRPVAAEVYGTERQPRTHYYAVAVVKKGGSFQLNELQGLKSCHTGLRRTAGWNVPIGTLRPFLNWTGPPEPIEAAVARFFSASCVPGADKGQFPNLCRLCAGTGENKCAFSSQEPYFSYSGAFKCLRDGAGDVAFIRESTVFEDLSDEAERDEYELLCPDNTRKPVDKFKDCHLARVPSHAVVARSVNGKEDAIWNLLRQAQEKFGKDKSPKFQLFGSPSGQKDLLFKDSAIGFSRVPPRIDSGLYLGSGYFTAIQNLRKSEEEVAARRARVVWCAVGEQELRKCNQWSGLSEGSVTCSSASTTEDCIALVLKGEADAMSLDGGYVYTAGKCGLVPVLAENYKSQQSSDPDPNCVDRPVEGYLAVAVVRRSDTSLTWNSVKGKKSCHTAVDRTAGWNIPMGLLFNQTGSCKFDEYFSQSCAPGSDPRSNLCALCIGDEQGENKCVPNSNERYYGYTGAFRCLAENAGDVAFVKDVTVLQNTDGNNNEAWAKDLKLADFALLCLDGKRKPVTEARSCHLAMAPNHAVVSRMDKVERLKQVLLHQQAKFGRNGSDCPDKFCLFQSETKNLLFNDNTECLARLHGKTTYEKYLGPQYVAGITNLKKCSTSPLLEACEFLRK

How the values were obtained:
eosinophils = assay: Eosinophil superoxide production (cytochrome c reduction) in protein-coated tissue culture wells; assay type: cell-based, human; settings: 1 to 100 micrograms per milliliter of the protein, 2 hours at 37° C
Experimental: Neutrophils were isolated from venous blood of healthy adult volunteers by density gradient centrifugation through lymphocyte separation medium (BioWhittaker; Walkersville, Md.) as described previously (Haskell M. D., et al., Blood 86:4627-4637 (1995)) with one modification. Isotonicity was restored following the brief hypotonic lysis steps by the addition of 2× concentrated Hank's Balanced Salt Solution (HBSS) (Gibco; Grand Island, N.Y.) (without Ca^2+ and Mg^2+) containing 5 mM HEPES, pH 7.4. The cells were suspended in HEPES (10 mM)-buffered HBSS (with Ca^2+ and Mg^2+), pH 7.4, containing 1 milligram per milliliter of human serum albumin (HSA) (Sigma Chemical Co.) (HEPES-HBSS-HSA buffer). Neutrophil purity was routinely greater than 95 percent, with eosinophils representing the remainder of the cells. Eosinophils were isolated from the neutrophil preparations by negative selection (Hansel T. T., et al., J. Immunol. Meth. 145:105-10 (1991)) using anti-CD16 immunomagnetic beads as described by the manufacturer (Miltenyi Biotec, Inc., Auburn, Calif.). The eosinophils were suspended in HEPES-HBSS-HSA buffer. Eosinophil purity was routinely greater than 95 percent as determined by counting Wright-stained cytospin preparations. In some assays, an aliquot of the neutrophil preparation was held on ice for later use.
Superoxide production was measured essentially as described elsewhere (Motegi, Y., and H. Kita, J. Immunol. 161:4340 (1998)). Briefly, wells in a 96-well (flat bottom) tissue culture plate (Corning, Inc.; Corning, N.Y.) were coated with human milk lactoferrin (Sigma Chemical Co.) or human secretory IgA (ICN Biomedical; Aurora, Ohio) by incubation with 50 microliters of the indicated concentrations of the proteins in phosphate buffered saline (PBS) overnight at 4° C. Non-specific protein binding sites were blocked by subsequent incubation with 100 microliters of 25 milligrams per milliliter of HSA in PBS for 2 hours at 37° C., and the tissue culture wells were washed twice with PBS before use. Aliquots (5×10^4 cells) of eosinophils or neutrophils were added to the wells and were incubated in HEPES-HBSS—HSA buffer containing 50 micromolar cytochrome c (Sigma Chemical Co.) for 120 minutes at 37° C. in a Ceres UV900HDi microplate reader (Bio-Tek Instruments, Inc., Winooski, Vt.). Total incubation volume was 0.2 milliliters. Absorbance at 550 nanometers was recorded at 15-minute intervals, and superoxide production was calculated as described previously (Motegi, Y., and H. Kita, J. Immunol. 161:4340 (1998)). Results are expressed as nanomoles superoxide per 10^5 cells after subtraction of spontaneous production, which was measured in tissue culture wells coated only with HSA. GM-CSF (R & D Systems; Minneapolis, Minn.), porcine heparin (Sigma Chemical Co.), or chondroitin sulfate C (Sigma Chemical Co.) was added to the incubation mixtures in some assays as indicated.

[1] = target: lactoferrin receptors on eosinophils; assay: Binding of 125I-labeled lactoferrin by eosinophils, Scatchard analysis; set-up: species or system human; settings: three experiments, 2 hours at room temperature
Experimental: Lactoferrin (100 micrograms) was radioiodinated using IODO-GEN iodination reagent (Pierce; Rockford, Ill.) according to the procedure supplied by the manufacturer. The lactoferrin was incubated with 400 micro Curies Na^125I (PerkinElmer Life Sciences; Boston, Mass.) for 3 min, and the ^125I-labeled lactoferrin was separated from free Na^125I by chromatography through a 5-ml D-Salt dextran desalting column (Pierce) using PBS as the elution buffer. Protein concentration of the ^125I-labeled lactoferrin was measured by the BCA assay (Pierce). Specific activity of the ^125I-labeled lactoferrin was 34,800 cpm/pmole. […] Binding of ^125I-labeled lactoferrin by eosinophils was determined using a modification of previously described protocols for eosinophils. Motegi et al. J. Immunol. 161:4340 (1998); Lopez et al., J. Biol. Chem. 266:24741 (1991). Eosinophils (2×10^6) were incubated with the indicated concentrations of ^125I-labeled lactoferrin alone and in the presence of excess unlabeled lactoferrin in RPMI 1640 containing 20 mM HEPES, 0.5% BSA, and 0.1% sodium azide (Lopez et al., J. Biol. Chem. 266:24741 (1991)) in siliconized glass tubes for 2 hr at room temperature on a circular oscillating platform. In some experiments as indicated, binding was measured in the presence of excess unlabeled transferrin. Total reaction volume was 0.15 ml. Reactions were stopped by centrifugation (1300 g for 4 min) of the reaction mixture through 200 microliters FCS in a 1.5 ml microcentrifuge tube. The supernatant was removed by careful aspiration, and after quick-freezing on dry ice the tip of the tube containing the cell pellet was excised and the radioactivity was measured by gamma counting (Beckman Coulter Gamma 5500B). Specific binding was determined as the difference between total binding and binding in the presence of the excess unlabeled lactoferrin. Binding constants were determined by Scatchard analysis (Scatchard, G., Ann. N.Y. Acad. Sci. 51:660 (1949)).

| Molecule | stimulation of eosinophil superoxide production (in words) (eosinophils) | Kd ([1]; mean+/−SE, listed as 125I-lactoferrin, read-out: KD, first class of receptors) [nM] | Kd ([1]; mean+/−SE, read-out: KD, first class of receptors) [nM] | Kd ([1]; read-out: KD, second class of receptors) [nM] |
| --- | --- | --- | --- | --- |
| B1 | retained full ability to stimulate eosinophil superoxide production | ~47 | 47 | ~260 |
| B2 | stimulated superoxide production to the same extent and in the same concentration-dependent manner as immobilized mock-deglycosylated lactoferrin | – | – | – |
| B3 | did not differ from that of control lactoferrin | – | – | – |
| B4 | stimulated minimal superoxide production | – | – | – |

Source: US20040259770A1, “Method for determining leukocyte activation” (Rush University Medical Center, priority 2003, published 2004)
